Assay results published in patent US20240101645A1 (HENRY M JACKSON FOUNDATION FOR THE ADVANCEMENT OF MILITARY …, published 2024).

Key:
[1] = target: SARS-CoV-2 S on pseudovirions (Wuhan Hu-1 / IL1/2020, last 18 amino acids removed) (SARS-CoV-2, UniProt P0DTC2 14-1273); assay: cell-based or functional assay
[2] = target: T1, HCoV-229E spike antigens (bead panel) (HCoV-229E, UniProt P15423 16-1115); assay: multiplex bead assay
T1 sequence: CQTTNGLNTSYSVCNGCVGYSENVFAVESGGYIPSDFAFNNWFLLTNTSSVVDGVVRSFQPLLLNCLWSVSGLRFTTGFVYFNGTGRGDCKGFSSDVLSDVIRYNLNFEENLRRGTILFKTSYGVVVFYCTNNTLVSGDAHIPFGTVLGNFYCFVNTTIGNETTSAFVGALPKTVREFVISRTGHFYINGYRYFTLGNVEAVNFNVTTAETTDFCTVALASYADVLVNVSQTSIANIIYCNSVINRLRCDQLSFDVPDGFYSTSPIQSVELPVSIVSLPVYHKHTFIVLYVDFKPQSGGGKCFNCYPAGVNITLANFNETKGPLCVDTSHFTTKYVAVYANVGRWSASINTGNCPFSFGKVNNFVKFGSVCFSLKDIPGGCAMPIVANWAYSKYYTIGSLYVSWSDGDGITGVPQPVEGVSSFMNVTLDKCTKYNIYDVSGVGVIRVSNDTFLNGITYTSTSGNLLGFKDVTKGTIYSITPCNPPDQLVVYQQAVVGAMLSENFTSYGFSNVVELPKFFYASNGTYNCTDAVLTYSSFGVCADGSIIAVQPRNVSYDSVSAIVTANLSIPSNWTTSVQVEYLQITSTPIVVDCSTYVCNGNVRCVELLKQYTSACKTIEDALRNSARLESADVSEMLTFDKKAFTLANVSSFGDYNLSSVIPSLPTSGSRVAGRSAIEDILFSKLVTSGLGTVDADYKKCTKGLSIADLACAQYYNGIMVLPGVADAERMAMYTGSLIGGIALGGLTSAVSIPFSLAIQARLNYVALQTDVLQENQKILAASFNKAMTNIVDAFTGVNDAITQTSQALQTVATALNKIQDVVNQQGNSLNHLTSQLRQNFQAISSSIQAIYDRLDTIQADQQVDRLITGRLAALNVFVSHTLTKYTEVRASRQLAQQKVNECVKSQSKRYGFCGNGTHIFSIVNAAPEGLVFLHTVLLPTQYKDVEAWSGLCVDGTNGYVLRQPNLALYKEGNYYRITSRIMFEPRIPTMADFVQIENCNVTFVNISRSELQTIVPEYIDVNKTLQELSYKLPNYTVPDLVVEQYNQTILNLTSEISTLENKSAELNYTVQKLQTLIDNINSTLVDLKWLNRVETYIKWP

[3] = target: T2, HCoV-HKU1 spike antigens (bead panel) (HCoV-HKU1, UniProt Q5MQD0 13-1300); assay: multiplex bead assay
T2 sequence: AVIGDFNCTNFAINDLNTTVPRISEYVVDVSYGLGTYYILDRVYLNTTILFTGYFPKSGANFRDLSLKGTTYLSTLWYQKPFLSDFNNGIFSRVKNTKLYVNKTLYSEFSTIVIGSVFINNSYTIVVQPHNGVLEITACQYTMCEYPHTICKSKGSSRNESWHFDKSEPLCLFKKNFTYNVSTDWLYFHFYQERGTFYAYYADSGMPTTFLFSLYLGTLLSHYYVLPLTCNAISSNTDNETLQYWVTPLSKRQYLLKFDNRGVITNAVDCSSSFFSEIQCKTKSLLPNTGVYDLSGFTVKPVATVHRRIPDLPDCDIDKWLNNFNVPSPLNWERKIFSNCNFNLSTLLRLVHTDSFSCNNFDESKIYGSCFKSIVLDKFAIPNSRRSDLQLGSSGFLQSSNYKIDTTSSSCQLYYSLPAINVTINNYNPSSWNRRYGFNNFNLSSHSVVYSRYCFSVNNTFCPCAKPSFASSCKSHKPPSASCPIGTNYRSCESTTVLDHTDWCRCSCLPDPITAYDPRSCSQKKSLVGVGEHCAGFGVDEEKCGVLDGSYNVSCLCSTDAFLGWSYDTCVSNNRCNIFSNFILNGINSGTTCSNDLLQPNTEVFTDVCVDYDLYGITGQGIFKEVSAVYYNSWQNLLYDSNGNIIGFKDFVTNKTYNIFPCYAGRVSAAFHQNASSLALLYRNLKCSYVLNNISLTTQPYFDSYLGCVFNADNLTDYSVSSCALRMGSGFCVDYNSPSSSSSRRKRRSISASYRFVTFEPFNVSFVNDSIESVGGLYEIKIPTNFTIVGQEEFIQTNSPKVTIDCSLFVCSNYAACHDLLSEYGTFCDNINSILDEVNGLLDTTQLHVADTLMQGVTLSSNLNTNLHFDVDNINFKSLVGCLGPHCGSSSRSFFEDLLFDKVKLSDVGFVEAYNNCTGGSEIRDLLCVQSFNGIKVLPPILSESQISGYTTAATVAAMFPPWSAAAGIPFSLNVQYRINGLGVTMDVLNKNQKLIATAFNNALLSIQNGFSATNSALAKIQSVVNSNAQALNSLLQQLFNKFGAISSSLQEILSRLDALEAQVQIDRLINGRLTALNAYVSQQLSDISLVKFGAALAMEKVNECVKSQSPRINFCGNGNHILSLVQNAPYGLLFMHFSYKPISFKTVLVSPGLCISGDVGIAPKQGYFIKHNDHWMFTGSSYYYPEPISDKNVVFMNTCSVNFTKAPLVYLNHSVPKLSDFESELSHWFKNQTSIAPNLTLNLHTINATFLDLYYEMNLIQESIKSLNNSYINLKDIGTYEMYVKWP

[4] = target: T3, MERS-CoV spike antigens (bead panel) (MERS-CoV, UniProt K9N5Q8 18-1296); assay: multiplex bead assay
T3 sequence: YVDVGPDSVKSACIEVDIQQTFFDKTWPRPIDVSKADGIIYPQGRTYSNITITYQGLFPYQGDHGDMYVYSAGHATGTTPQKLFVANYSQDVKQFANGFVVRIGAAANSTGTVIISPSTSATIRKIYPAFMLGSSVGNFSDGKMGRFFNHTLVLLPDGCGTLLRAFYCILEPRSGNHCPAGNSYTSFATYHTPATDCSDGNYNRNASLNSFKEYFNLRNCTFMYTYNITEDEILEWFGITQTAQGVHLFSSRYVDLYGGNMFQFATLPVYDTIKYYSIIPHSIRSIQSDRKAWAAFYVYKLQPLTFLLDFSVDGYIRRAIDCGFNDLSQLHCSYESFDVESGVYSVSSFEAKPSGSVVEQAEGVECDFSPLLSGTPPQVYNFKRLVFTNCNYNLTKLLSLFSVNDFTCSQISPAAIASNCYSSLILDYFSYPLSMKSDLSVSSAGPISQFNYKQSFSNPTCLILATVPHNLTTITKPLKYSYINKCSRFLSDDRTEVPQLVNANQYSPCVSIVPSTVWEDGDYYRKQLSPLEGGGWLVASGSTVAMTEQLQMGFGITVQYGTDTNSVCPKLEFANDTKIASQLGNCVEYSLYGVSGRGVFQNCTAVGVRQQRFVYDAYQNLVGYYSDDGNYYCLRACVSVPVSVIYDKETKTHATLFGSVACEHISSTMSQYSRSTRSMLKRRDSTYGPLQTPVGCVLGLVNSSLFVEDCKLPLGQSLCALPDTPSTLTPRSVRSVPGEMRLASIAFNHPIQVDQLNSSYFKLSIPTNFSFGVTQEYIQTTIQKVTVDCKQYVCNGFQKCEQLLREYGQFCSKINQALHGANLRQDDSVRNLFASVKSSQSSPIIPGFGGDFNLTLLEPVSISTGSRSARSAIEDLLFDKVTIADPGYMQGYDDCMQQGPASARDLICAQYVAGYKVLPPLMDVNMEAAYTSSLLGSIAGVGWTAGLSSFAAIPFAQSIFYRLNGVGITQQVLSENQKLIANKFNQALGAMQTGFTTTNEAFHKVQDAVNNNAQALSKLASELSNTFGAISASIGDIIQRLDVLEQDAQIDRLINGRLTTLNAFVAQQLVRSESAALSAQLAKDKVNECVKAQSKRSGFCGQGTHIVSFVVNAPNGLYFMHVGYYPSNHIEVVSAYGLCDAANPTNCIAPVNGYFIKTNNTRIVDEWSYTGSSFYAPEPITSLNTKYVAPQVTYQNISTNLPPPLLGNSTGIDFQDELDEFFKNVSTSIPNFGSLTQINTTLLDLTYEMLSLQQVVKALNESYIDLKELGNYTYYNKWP

[5] = target: SARS-CoV-1 spike antigens (bead panel) (SARS-CoV-1, UniProt P59594 14-1195); assay: multiplex bead assay

Binder | Mean IC50, pSV neutralization [1] [µg/ml] | Mean IC80, pSV neutralization [1] [µg/ml] | binding result [2] | binding result [3] | binding result [4] | binding result [5]
COV_2064 (antibody, V domains shown, human IgG1) VH: EVQLVESGGGLVQPGGSLRLSCTASGFTFNNNWMHWVRQVPGKGLVWVSRINTDESSTSYADSVKGRFIISRDNAKNTLYLQMNSLRVEDTAVYYCARSTAQYDIWTGYYYYMDVWGKGTTVTVSS VL: DIQMTQSPSTLSASVGDRVTISCRASQSISTWLAWYQQKPGKAPNLLIYGASNLGSGVPSRFSGGGSGTEFTLTISSLQSDDFATYYCQRYNSFPYTFGQGTKLEIKR | ≥ 25 | ≥ 25 | no binding | no binding | no binding | 
COV_1063 (antibody, V domains shown, human IgG1) VH: EEKLVESGGDLVQPGGSLRISCEVSGFSLSKYWMNWVRQAPGKGLQWVANIEEDGSERNYADSVKGRFTISRDNARNSLYLQMNSLRVEDTAVYLCTAGHYAGPWGWGQGTLVTVSS VL: DIQMTQSPSSLSASVGDRVTVTCRASQDIGHYLAWYQQKPGKTPNLLIYDAFNLESGVPPRFGGSGSGTDFTLTISSLQPEDAATYYCQKYDSVPWTFGQGTKVEIKR | ≥ 25 | ≥ 25 |  |  |  | no binding
COV_1131 (antibody, V domains shown, human IgG1) VH: QVQLQESGPGLVKPSETLSLTCSVSGGSISSYYWSWIRQPPGKGLEWIGYISYSGSTNYNPSLKSRVTISVDTSKNQFSLKLSSVTAADTAVYYCARLGFGGIYPSLYDAFDIWGQGTMVTVSS VL: DIQMTQSPSSLSASVGDRVTITCRASQTISSYLNWYQQKPGKAPNLLIYDASSLQRGVPSRFSGSGSGTDFTLTISSLQPEDFATYYCQQSYSTPRTFGQGTKVEIKR | ≥ 25 | ≥ 25 | no binding | no binding | no binding | 
